Laboratory results reported in US20210061893A1.
Where no end group is shown, it is not given here.

What was measured:
[1] = biological target: antibodies raised to …-NH2 (SEQ. ID NO: 7); assay: RIA or EIA, competitive immunoassay with antibodies raised to SEQ ID NO: 7; standard peptide not named
[2] = biological target: phoenixin binding sites on rat pituitary adenoma cells, RC-4B/C (rat); assay: displacement of 50 pM 125I-Y0-Phoenixin-20 amide from RC-4B/C cells, gamma counting

EC50 [1] [ng/mL] | IC50 [2] [nM] | Binder
0.2 | 21.5 | AGIVQEDVQPPGLKVWSDPF-NH2 [Phoenixin-20 amide, …-NH2]
 | 17.9 | DVQPPGLKVWSDPF-NH2 [phoenixin-14 amide, …-NH2]
